B1: TPR t1 (parent)
chain: GACCAAUCUGCCCUCAGAGCUCGAGAACAUCUUCGGAUGCAGAGGAGGCAGGCUUCGGUGGCGCGAUAGCGCCAACGUCCUCAACCUCCAAUGCAUCCCACCACAUGAUGAUGCCUGAAGAGCCUUGGUUUUUUG

Variants of: B1
Experiment: polymerase ribozyme fitness, log enrichment relative to wild type (log ratio); higher = more active; in vitro selection for triplet polymerase activity
Procedure, shortened: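 Each subunit of a heterodimeric triplet polymerase ribozyme was represented by a PCR-built, transcribed mutant library that underwent triplicate single-round in vitro selection with frozen incubation at −7 °C. Extended constructs were recovered by gel excision, streptavidin-bead capture and RT-PCR, and Illumina sequencing of input and output libraries kept genotypes with ≥10 input reads and ≥1 read per output. Fitness is the logarithm of genotype enrichment relative to wild-type enrichment, from inverse-variance-weighted replicate averages, with a logarithm base of 2.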

Row | Variant | polymerase ribozyme fitness (log ratio)
1 | C8U C53G | -0.0198
2 | U9A G45A | -0.107
3 | U9G C40A G69A C76U C114A | -6.98
4 | U9A G48C C62A G77A C88U U112A | -3.81
5 | U9G C94A U125G | -1.1
6 | U9A G61A | 0.705
7 | U9A C72A A83U U129A | -0.91
8 | U9A C15U A41U G60U U92C C123A | -0.568
9 | U9A C86A C98U | -0.22
10 | C8U C88A A90U | -0.855
11 | U9G C34U A103U | -4.66
12 | U9G C20U U87G | -0.825
13 | U9A G61A A75U U96G A121G U129C G135U | 0.515
14 | U9A C56A G77U G117U | 0.546
15 | U9G C13U C89A G107A C114U | -1.8
16 | U9G C12A U14C G44C G63A G77A G93A | -2.85
17 | U9G U14A G52C | -0.345
18 | U9A C85U | 0.475
19 | U9A C22G G51A C56G C123A | -3.28
20 | U9G G71U A84G C89G U112G | -7.39
21 | U9G A29G | -1.35
22 | U9A A26G A50U | -1.68
23 | U9C A41C A91C | -1.02
24 | U9C G71A | 0.0862

Row | Variant | polymerase ribozyme fitness (log ratio)
25 | C8U U87A U112C G117U U130C | -0.73
26 | U9C C11U U78C C82G A83U | -0.241
27 | U9G A26U | -2.33
28 | U9A A26G G47A C49U C82G G107U | -6.22
29 | C8U C40U G60A C82A G120U | 1.65
30 | U9A U32C G36C | -0.0123
31 | U9A A84U U92A U116G U132C | -4.07
32 | C8U U59G | 0.21
33 | U9G U38G U55C | -0.21
34 | U9G A24G | -0.443
35 | U9C C12G C28U C73U G110C | -1.73
36 | C8U C56U C70A | -4.3
37 | U9A C22A | -4.76
38 | U9G C70U U81C G110U | -3.84
39 | U9G G36U G60C U78A C88A | -1.68
40 | U9C A29U U129A | -2.08
41 | C8U U14A G61U C70U C104U C124A G135C | 0.783
42 | U9G C40U C114G G122A C123G | -5.42
43 | C8U G93A G110U G127C | -2.37
44 | U9G C99U | -2.87
45 | U9C A41G G45U C82U C85G | -4.04
46 | C8U C123A | 0.745
47 | C8U C70G C97U C124U U131A | -1.27
48 | U9G G42U U55A | -1.32

Row | Variant | polymerase ribozyme fitness (log ratio)
49 | U9A G69C | -0.589
50 | U9G U14A | -0.133
51 | C8U G69U | 0.891
52 | C8U G69A | -1.72
53 | U9A C56A A66U | -0.548
54 | U9C G60U C62U U78G C80A U112C | -1.95
55 | U9G G52U C80A G110U | -5.82
56 | C8U C64U C101G G110A | -3.18
57 | U9C G57U C114U G128C U130C | -1.68
58 | C8U G35A | -3.11
59 | U9C G69A G77A | -2.73
60 | C8U C56A | 0.00842
61 | C8U C56U | 0.434
62 | C8U C64A C115U | -6.79
63 | U9A C70U U78A | -0.654
64 | U9C G69C | -0.746
65 | C8U U55C C64G U112A | -6.22
66 | C8U C49G C123U | 1.73
67 | C8U G36U C56U C82A C89G | -2.15
68 | C8U C73G | -0.251
69 | U9C G120C | 1.46
70 | U9A C15A A37G C56U G65A C79G C86G C115A | -7.1
71 | U9A G47U A50C | -1.68
72 | U9G G60A U92G | -2.36

Row | Variant | polymerase ribozyme fitness (log ratio)
73 | C8U C22U C53U A100U | -5.15
74 | U9G A29U G39C | -3.86
75 | U9A A108U C123G | -4.11
76 | U9G G35U | -4.99
77 | U9A C13G A37G C82G U116C U125A | -4.1
78 | U9A G47U G63C U130C | 0.0031
79 | U9A A37C G63A | -0.704
80 | C8U G61A C99U | -2.24
81 | U9G A43C | -1.01
82 | C8U G39U A66G G113C | -4.22
83 | U9G C70G | -2.02
84 | U9G C70A | -1.08
85 | U9C C73A C85G | -0.637
86 | U9C C80U A91G | -0.111
87 | U9A G63U U96G G128A | -2.96
88 | U9G G69C | -2.16
89 | U9G G69A | -2.25
90 | U9A A16U C64U C73U | 0.678
91 | U9G G63C G71U C79A | -5.4
92 | C8U G51U | -2.45
93 | C8U G44C A83U | -0.336
94 | U9A G10C C73U C102G C114G C115G | -6.5
95 | U9G A27G A37U | -0.779
96 | U9A G128C | -2.11

Row | Variant | polymerase ribozyme fitness (log ratio)
97 | U9G C56U C114A C115G | -5.74
98 | U9A G19U G42A A46G U78C | -4.66
99 | U9G G42U G45C U92G U129A | -6.64
100 | U9A U78C C86A A121C | 2.18
101 | C8U G48A C72U | 0.0222
102 | U9A U33G G36U U38G C53G C115G | -7.69
103 | U9C C11U C101A | -0.843
104 | U9G U54G G58C C73U | -0.715
105 | U9A C20U G71U A91C G107A G117A | -6.01
106 | U9G G42A C53G | -2.45
107 | U9C C53G A105U | -1.72
108 | U9G G35U C40A G93C C114U | -5.91
109 | C8U C76G A90C C101U | -1.52
110 | U9G C56A A66C C72U | -1.3
111 | C8U G10C C13A C34A C40U C98G A103C | -3.92
112 | C8U C70U C97U C124U U131A | 0.416
113 | U9G C88U G93C | -0.642
114 | U9C C98G | -5.05
115 | U9A C11A G42U C64U | -1.3
116 | U9A C11U G52A | -0.401
117 | U9G U38G C70U A105U | -4.46
118 | C8U C49A | 0.373
119 | U9A G10C C79A C101G | -2.55
120 | U9C U78G U81A | -0.22

Row | Variant | polymerase ribozyme fitness (log ratio)
121 | U9G G39A G57A C114G G117A | -6.32
122 | U9C U92G | -1.58
123 | U9G C11A C70A U87A | -2.04
124 | U9C G69U G71U U92A | -3.04
125 | C8U C56U U96C | 0.0221
126 | U9A C22U C49A C86A | -5.1
127 | U9G G19U A46C C56U | -3.13
128 | U9A G42A C86U C104G G110U | -7.22
129 | C8U C70G U78C G113A A121G | -3.57
130 | U9G G61C | -1.59
131 | C8U G44A G60A A121C G122U | -1.04
132 | U9A G36C C101U | -0.0357
133 | C8U C13U G35C A46U C115A | -3.54
134 | U9A C11G G93U A100G | -5.7
135 | U9C U32C U59G A121C G122U | 0.733
136 | C8U C56A U81G G120C | 0.594
137 | U9C U112A C114G | 0.928
138 | C8U G52U A105G | -3.89
139 | C8U G61A A84C | 0.393
140 | U9A C11A C56A A95G U106A C123U | 1.46
141 | U9A C80U | 0.294
142 | U9G C15G U81A U109G G127C | -5.35
143 | U9G U14C G51A C56U C80A | -3.92
144 | U9C U78C A83U A90G A121G | 2.5

Row | Variant | polymerase ribozyme fitness (log ratio)
145 | U9A C31U A111C G135U | -4.56
146 | C8U G61U A66U C123A U133G | 0.747
147 | U9C G17A A18G G113U | -4.74
148 | U9A G10A C40A C70U U78C G110U C123U | -4.89
149 | U9G C56U C62U C94U U96A | -1.52
150 | U9A C72G | -0.0842
151 | U9A C13U G19U U78A A91G | -3.32
152 | U9G C72A A95G | 0.389
153 | U9G A43U G52U C72U C82A | -3
154 | U9A A50C | 0.19
155 | U9G G69U C73U U106C | 0.373
156 | U9G G35U A111U | -6.59
157 | U9G A50C | -0.315
158 | U9A C64U A66G | -3.02
159 | U9A A16U C89U | -0.38
160 | C8U C15A G69A C73A C102U C123A | -5.63
161 | U9A G117U | -1.08
162 | U9C C101G C104U U116C | -2.48
163 | C8U C13U C28G C82G C114G | -4.82
164 | U9A G44C C80A U96C | -3.87
165 | U9A A16U G63C U132A | -0.608
166 | U9C U14C U33G G51A G69U A118G | -5.88
167 | U9G G10U C104A | -1.09

— the RNAGym collection of RNA variant scans (doi:10.1073/pnas.2313332121)
